Source: PMC8573869

T1: endogenous long reticulon-3 (RTN3L), O95197
T1 chain: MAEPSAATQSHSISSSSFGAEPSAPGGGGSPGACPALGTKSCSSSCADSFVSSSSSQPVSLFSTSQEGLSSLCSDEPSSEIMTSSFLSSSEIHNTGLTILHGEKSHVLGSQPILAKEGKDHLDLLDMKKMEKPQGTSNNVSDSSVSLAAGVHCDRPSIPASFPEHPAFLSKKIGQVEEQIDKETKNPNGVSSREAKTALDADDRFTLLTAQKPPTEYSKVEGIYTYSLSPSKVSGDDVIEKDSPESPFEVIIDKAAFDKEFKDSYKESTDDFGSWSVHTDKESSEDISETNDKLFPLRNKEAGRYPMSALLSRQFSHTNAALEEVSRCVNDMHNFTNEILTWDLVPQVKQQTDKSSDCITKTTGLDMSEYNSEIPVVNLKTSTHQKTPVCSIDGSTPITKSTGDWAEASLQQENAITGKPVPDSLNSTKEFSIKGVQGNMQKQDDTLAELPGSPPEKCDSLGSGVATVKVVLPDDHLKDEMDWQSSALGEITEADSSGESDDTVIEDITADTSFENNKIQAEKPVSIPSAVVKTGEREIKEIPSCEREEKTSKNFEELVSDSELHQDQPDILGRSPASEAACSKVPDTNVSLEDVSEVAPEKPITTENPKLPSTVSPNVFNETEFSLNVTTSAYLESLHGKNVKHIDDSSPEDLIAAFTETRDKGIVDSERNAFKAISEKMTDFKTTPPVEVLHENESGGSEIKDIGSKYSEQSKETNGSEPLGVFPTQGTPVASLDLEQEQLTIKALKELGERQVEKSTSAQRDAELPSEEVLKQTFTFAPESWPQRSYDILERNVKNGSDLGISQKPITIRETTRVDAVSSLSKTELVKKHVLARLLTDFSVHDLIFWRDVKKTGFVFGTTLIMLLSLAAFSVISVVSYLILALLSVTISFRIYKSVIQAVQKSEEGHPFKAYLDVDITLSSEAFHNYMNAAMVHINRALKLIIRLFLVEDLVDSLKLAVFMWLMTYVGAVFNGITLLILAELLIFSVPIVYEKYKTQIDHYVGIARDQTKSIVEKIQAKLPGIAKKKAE

T2: endogenous family with sequence similarity 134 member B (FAM134B), Q9H6L5
T2 chain: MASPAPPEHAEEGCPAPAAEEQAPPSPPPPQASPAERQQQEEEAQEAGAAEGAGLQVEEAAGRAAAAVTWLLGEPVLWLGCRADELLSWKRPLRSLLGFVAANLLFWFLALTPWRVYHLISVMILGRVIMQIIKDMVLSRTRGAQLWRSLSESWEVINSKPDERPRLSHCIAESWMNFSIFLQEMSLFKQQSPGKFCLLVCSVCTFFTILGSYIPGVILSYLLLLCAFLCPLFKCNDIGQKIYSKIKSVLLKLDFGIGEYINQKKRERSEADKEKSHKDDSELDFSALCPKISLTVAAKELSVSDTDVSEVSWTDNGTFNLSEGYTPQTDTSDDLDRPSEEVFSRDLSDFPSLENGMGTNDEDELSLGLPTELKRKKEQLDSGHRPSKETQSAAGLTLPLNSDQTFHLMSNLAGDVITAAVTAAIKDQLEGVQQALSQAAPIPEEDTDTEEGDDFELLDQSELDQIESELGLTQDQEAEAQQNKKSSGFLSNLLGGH


Tests used:
[1] = target: T1, endogenous long reticulon-3 (RTN3L), …; test: co-immunoprecipitation (anti-FLAG IP, densitometry); conditions: chain shown with the change; MCF7 cells transfected for 48 h, crosslinking; n = 3; parent: est. 1.0; read off a plot
[2] = target: T2, endogenous family with sequence …; test: as above; conditions: chain shown with the change; MCF7 cells transfected for 48 h, crosslinking; n = 3; parent: est. 1.0; read off a plot

Row | ratio to parent [1] | ratio to parent [2] | Binder
1 | 1.3 | 0.75 | FLAG-tagged wild-type Rab32, Q13637 T39N (protein) MAGGGAGDPGLGAAAAPAPETREHLFKVLVIGELGVGKNSIIKRYVHQLFSQHYRATIGVDFALKVLNWDSRTLVRLQLWDIAGQERFGNMTRVYYKEAVGAFVVFDISRSSTFEAVLKWKSDLDSKVHLPNGSPIPAVLLANKCDQNKDSSQSPSQVDQFCKEHGFAGWFETSAKDNINIEEAARFLVEKILVNHQSFPNEENDVDKIKLDQETLRAENKSQCC
2 | 3.4 | 0.95 | FLAG-tagged wild-type Rab32, Q13637 Q85L (protein) MAGGGAGDPGLGAAAAPAPETREHLFKVLVIGELGVGKTSIIKRYVHQLFSQHYRATIGVDFALKVLNWDSRTLVRLQLWDIAGLERFGNMTRVYYKEAVGAFVVFDISRSSTFEAVLKWKSDLDSKVHLPNGSPIPAVLLANKCDQNKDSSQSPSQVDQFCKEHGFAGWFETSAKDNINIEEAARFLVEKILVNHQSFPNEENDVDKIKLDQETLRAENKSQCC
